The supplement of paper PMC11246515
± gives the standard deviation of the averaged measurements.

Assay: total protein half-life in vivo (active degradation + dilution); higher = more stable protein
[1] = E. coli NCM3722 delta-clpP, growth: N-lim chemostat, doubling time 6 h
[2] = E. coli NCM3722 delta-smpB, growth: N-lim chemostat, doubling time 6 h
[3] = wild type E. coli NCM3722, growth: C-lim chemostat, doubling time 3 h
[4] = wild type E. coli NCM3722, growth: C-lim chemostat, doubling time 6 h
[5] = wild type E. coli NCM3722, growth: C-lim chemostat, doubling time 12 h
[6] = wild type E. coli NCM3722, growth: N-lim chemostat, doubling time 6 h
[7] = E. coli NCM3722 delta-clpP delta-lon delta-hslV, growth: N-lim chemostat, doubling time 6 h
[8] = E. coli NCM3722 delta-hslV, growth: N-lim chemostat, doubling time 6 h
[9] = E. coli NCM3722 delta-lon, growth: N-lim chemostat, doubling time 6 h
[10] = wild type E. coli NCM3722, growth: N-lim chemostat, doubling time 12 h
[11] = wild type E. coli NCM3722, growth: P-lim chemostat, doubling time 6 h
[12] = wild type E. coli NCM3722, growth: P-lim chemostat, doubling time 12 h

Row | Sequence | total protein half-life in vivo [1] [h] | total protein half-life in vivo [2] [h] | total protein half-life in vivo [3] [h] | total protein half-life in vivo [4] [h] | total protein half-life in vivo [5] [h] | total protein half-life in vivo [6] [h] | total protein half-life in vivo [7] [h] | total protein half-life in vivo [8] [h] | total protein half-life in vivo [9] [h] | total protein half-life in vivo [10] [h] | total protein half-life in vivo [11] [h] | total protein half-life in vivo [12] [h]
1 | MALLNIFDIAGSALTAQSQRLNVAASNLANADSVTGPDGQPYRAKQVVFQVNAAPGAATGGVKVADVIESQAPDKLVYEPGNPLADAKGYVKMPNVDVVGEMVNTMSASRSYQANVEVLNTVKSMMLKTLTLGQ [P0ABX2] | > 8 | > 8 | 0.544 ± 0.33 | 0.417 | 1.79 ± 0.53 | 3.6 | – | – | – | – | – | –
2 | MALQNEKNSRYLLRDWKPENPAFWENKGKHIARRNLWISVSCLLLAFCVWMLFSAVTVNLNKIGFNFTTDQLFLLTALPSVSGALLRVPYSFMVPIFGGRRWTVFSTAILIIPCVWLGIAVQNPNTPFGIFIVIALLCGFAGANFASSMGNISFFFPKAKQGSALGINGGLGNLGVSVMQLVAPLVIFVPVFAFLGVNGVPQADGSVMSLANAAWIWVPLLAIATIAAWSGMNDIASSRASIADQLPVLQRLHLWLLSLLYLATFGSFIGFSAGFAMLAKTQFPDVNILRLAFFGPFIGAIARSVGGAISDKFGGVRVTLINFIFMAIFSALLFLTLPGTGSGNFIAFYAVFMGLFLTAGLGSGSTFQMIAVIFRQITIYRVKMKGGSDEQAHKEAVTETAAALGFISAIGAVGGFFIPQAFGMSLNMTGSPVGAMKVFLIFYIVCVLLTWLVYGRRKFSQK | 6.58 ± 0.92 | 6.07 ± 0.48 | 2.53 | 6.34 ± 0.088 | 13.7 ± 1.8 | 4.92 ± 0.76 | 6.73 ± 1.1 | 6.57 ± 1.3 | 6.52 ± 0.52 | 10.8 ± 2.6 | 7.05 | 12.86 ± 0.088
3 | MALTAALKAQIAAWYKALQEQIPDFIPRAPQRQMIADVAKTLAGEEGRHLAIEAPTGVGKTLSYLIPGIAIAREEQKTLVVSTANVALQDQIYSKDLPLLKKIIPDLKFTAAFGRGRYVCPRNLTALASTEPTQQDLLAFLDDELTPNNQEEQKRCAKLKGDLDTYKWDGLRDHTDIAIDDDLWRRLSTDKASCLNRNCYYYRECPFFVARREIQEAEVVVANHALVMAAMESEAVLPDPKNLLLVLDEGHHLPDVARDALEMSAEITAPWYRLQLDLFTKLVATCMEQFRPKTIPPLAIPERLNAHCEELYELIASLNNILNLYMPAGQEAEHRFAMGELPDEVLEICQRLAKLTEMLRGLAELFLNDLSEKTGSHDIVRLHRLILQMNRALGMFEAQSKLWRLASLAQSSGAPVTKWATREEREGQLHLWFHCVGIRVSDQLERLLWRSIPHIIVTSATLRSLNSFSRLQEMSGLKEKAGDRFVALDSPFNHCEQGKIVIPRMRVEPSIDNEEQHIAEMAAFFRKQVESKKHLGMLVLFASGRAMQRFLDYVTDLRLMLLVQGDQPRYRLVELHRKRVANGERSVLVGLQSFAEGLDLKGDLLSQVHIHKIAFPPIDSPVVITEGEWLKSLNRYPFEVQSLPSASFNLIQQVGRLIRSHGCWGEVVIYDKRLLTKNYGKRLLDALPVFPIEQPEVPEGIVKKKEKTKSPRRRRR | 4.6 ± 0.54 | 4.63 ± 0.33 | 2.59 ± 0.09 | 3.93 ± 0.69 | 9.99 ± 0.84 | 4.18 ± 0.2 | 5.64 ± 0.42 | 4.38 ± 0.61 | 4.265 ± 0.026 | 6.77 ± 1.1 | 4.57 ± 0.25 | 8.11 ± 0.31
4 | MALTKAEMSEYLFDKLGLSKRDAKELVELFFEEIRRALENGEQVKLSGFGNFDLRDKNQRPGRNPKTGEDIPITARRVVTFRPGQKLKSRVENASPKDE [P0A6X7] | 6.46 ± 1 | 5.2 ± 0.41 | 3.249 ± 0.0028 | – | – | 5.83 ± 0.23 | – | – | 7.06 ± 0.79 | – | 6.33 ± 0.39 | 11.7 ± 1.9
5 | MALYTIGEVALLCDINPVTLRAWQRRYGLLKPQRTDGGHRLFNDADIDRIREIKRWIDNGVQVSKVKMLLSNENVDVQNGWRDQQETLLTYLQSGNLHSLRTWIKERGQDYPAQTLTTHLFIPLRRRLQCQQPTLQALLAILDGVLINYIAICLASARKKQGKDALVVGWNIQDTTRLWLEGWIASQQGWRIDVLAHSLNQLRPELFEGRTLLVWCGENRTSAQQQQLTSWQEQGHDIFPLGI | 1.79 | 1.34 ± 0.26 | 1.64 ± 0.79 | 3.86 ± 0.76 | 4.23 ± 0.31 | 2.04 | – | 1.66 | 3.39 ± 0.71 | 2.49 | 1.98 | 3.04 ± 0.58
6 | MAMVEMQTTAALAESRRKMQARRRLKNRIALTLSMATMAFGLFWLIWILMSTITRGIDGMSLALFTEMTPPPNTEGGGLANALAGSGLLILWATVFGTPLGIMAGIYLAEYGRKSWLAEVIRFINDILLSAPSIVVGLFVYTIVVAQMEHFSGWAGVIALALLQVPIVIRTTENMLKLVPYSLREAAYALGTPKWKMISAITLKASVSGIMTGILLAIARIAGETAPLLFTALSNQFWSTDMMQPIANLPVTIFKFAMSPFAEWQQLAWAGVLIITLCVLLLNILARVVFAKNKHG | 5.74 ± 0.15 | 4.97 ± 0.05 | 3.37 | 5.11 ± 0.51 | 12.1 ± 1.3 | 5.15 ± 0.12 | 6.78 ± 1.7 | > 8 | 4.84 | 10.6 ± 2 | 4.95 ± 0.35 | 9.13 ± 0.56
